Consider two molecules from paper PMC12784961, “Structure of Bacillus subtilis Ku-mediated DNA synaptic complex”.

Data set [1] deals with T1, bsKu core (wild type) (Bacillus subtilis, UniProt O34859 18-244).
T1 sequence: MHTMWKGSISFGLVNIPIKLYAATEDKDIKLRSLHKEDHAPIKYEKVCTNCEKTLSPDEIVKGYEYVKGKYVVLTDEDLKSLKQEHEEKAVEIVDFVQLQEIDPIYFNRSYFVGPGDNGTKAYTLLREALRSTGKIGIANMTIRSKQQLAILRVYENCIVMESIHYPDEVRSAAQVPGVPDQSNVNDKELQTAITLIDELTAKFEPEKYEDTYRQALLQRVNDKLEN
Briefly: cryo-EM; 2.74 A; two blunt ends bridged by two Ku homodimers; EMSA: 20 mM HEPES pH 7.5, 150 mM KCl, 1 mM DTT, 50 nM DNA, 30 min at 4°C, 15% native PAGE in 0.5x TBE, SYBR Gold; SEC: same buffer, protein:DNA 1:2, 1 h at 4°C, Superdex 75. As to conditions: protein: recombinant, tags: N-terminal 8xHis-MBP, cleaved with PreScission protease, chain copies: 2. A general note: A gel shift assay detects complexes by their altered migration in electrophoresis.

The target of data set [2] is T1, bsKu core (wild type). Briefly: size-exclusion chromatography; 1:1 complex, no oligomerization; EMSA: 20 mM HEPES pH 7.5, 150 mM KCl, 1 mM DTT, 50 nM DNA, 30 min at 4°C, 15% native PAGE in 0.5x TBE, SYBR Gold; SEC: same buffer, protein:DNA 1:2, 1 h at 4°C, Superdex 75. The note with it: protein: recombinant; tags: N-terminal 8xHis-MBP, cleaved with PreScission protease; chain copies: 2; 2-nt overhang; main text says at one end. On the technique in general: In gel filtration, larger molecules generally elute earlier.

B1: 13-bp DNA (dsDNA)
DNA 1: GTACCTGTAGAAG
DNA 2: CTTCTACAGGTAC
Take B1: the binding result with bsKu core (wild type) [1] is “binds”.

B2: 11-bp DNA with 2-nt overhang (dsDNA)
DNA 1: ACACACGCCGAGC
DNA 2: GCTCGGCGTGT
For B2, the binding result with bsKu core (wild type) [2] is “binds”.
